Test results: patent US20160200781

Assays:
[1] = test system: ZF11xHunt-Kox-1 (synthetic); test: cell_activity
[2] = test system: ZF6xHunt-Kox-1 (synthetic); test: cell_activity; settings: htt mRNA repression up to 2.5-fold (60%); protein up to 2-fold; STHdh Q111 cells, 20 days
ZF6xHunt-Kox-1 (synthetic), sequence (chain, as listed by the source): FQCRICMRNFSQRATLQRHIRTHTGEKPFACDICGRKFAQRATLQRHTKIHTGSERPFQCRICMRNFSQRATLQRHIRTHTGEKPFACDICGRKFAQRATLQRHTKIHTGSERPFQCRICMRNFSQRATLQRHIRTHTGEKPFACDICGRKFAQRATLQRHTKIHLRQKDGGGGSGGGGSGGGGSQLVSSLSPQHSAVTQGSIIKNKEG

ZF11xHunt-Kox-1 (synthetic), sequence (chain, as listed by the source): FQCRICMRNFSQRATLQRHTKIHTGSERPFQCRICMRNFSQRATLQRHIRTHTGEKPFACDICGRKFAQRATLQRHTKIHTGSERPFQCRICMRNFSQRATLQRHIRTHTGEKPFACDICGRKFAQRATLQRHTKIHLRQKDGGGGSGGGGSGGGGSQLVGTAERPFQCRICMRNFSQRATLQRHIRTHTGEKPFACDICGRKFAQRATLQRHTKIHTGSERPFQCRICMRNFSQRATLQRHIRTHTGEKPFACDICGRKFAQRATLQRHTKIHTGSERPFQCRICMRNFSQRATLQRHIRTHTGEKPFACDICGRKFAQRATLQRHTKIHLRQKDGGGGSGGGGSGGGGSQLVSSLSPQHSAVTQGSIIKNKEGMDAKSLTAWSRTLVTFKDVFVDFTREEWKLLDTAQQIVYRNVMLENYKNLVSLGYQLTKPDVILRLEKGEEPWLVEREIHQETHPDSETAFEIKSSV

R6/2 mutant htt transgene was tested, and the activity ([1]; mean mutant htt mRNA reduction in R6/2 striatum at 6 weeks, AAV2/1 delivery) was > 45 % reduction.

mutant htt Q111 chromosomal locus was tested, and the activity [2] was < 2.5 fold and the activity ([1]; almost 80% mRNA reduction and 95% protein reduction, STHdh Q111 cells, 20 days) was 80 % reduction.
